According to patent US20080249083:

T1: amyloid β(3-11)
T1 chain: EFRHDSGYE

B1: human QC (glutaminyl cyclase, QPCT) (protein)
chain: VSPSASAWPEEKNYHQPAILNSSALRQIAEGTSISEMWQNDLQPLLIERYPGSPGSYAARQHIMQRIQRLQADWVLEIDTFLSQTPYGYRSFSNIISTLNPTAKRHLVLACHYDSKYFSHWNNRVFVGATDSAVPCAMMLELARALDKKLLSLKTVSDSKPDLSLQLIFFDGEEAFLHWSPQDSLYGSRHLAAKMASTPHPPGARGTSQLHGMDLLVLLDLIGAPNPTFPNFFPNSARWFERLQAIEHELHELGLLKDHSLEGRYFQNYSYGGVIQDDHIPFLRRGVPVLHLIPSPFPEVWHTMDDNEENLDESTIDNLNKILQVFVLEYLHL
B2: YSShisoQCI55NC351A C-His (human isoQC expressed in P. pastoris) (protein)
chain: FYTIWSGWHRRTEELPLGRELRVPLNGSLPEARLRRVVGQLDPQRLWSTYLRPLLVVRTPGSPGNLQVRKFLEATLRSLTAGWHVELDPFTASTPLGPVDFGNVVATLDPRAARHLTLACHYDSKLFPPGSTPFVGATDSAVPCALLLELAQALDLELSRAKKQAAPVTLQLLFLDGEEALKEWGPKDSLYGSRHLAQLMESIPHSPGPTRIQAIELFMLLDLLGAPNPTFYSHFPRTVRWFHRLRSIEKRLHRLNLLQSHPQEVMYFQPGEPFGSVEDDHIPFLRRGVPVLHLISTPFPAVWHTPADTEVNLHPPTVHNLARILAVFLAEYLGLHHHHHH

Biological target: T1, amyloid β(3-11)

Protein | conversion of Aβ(3-11) into pGlu-Aβ(3-11), Maldi-Tof mass spectrometry
B1 | human QC and human isoQC (YSShisoQCI55NC351A C-His) catalyze the conversion of Aβ(3-11) into pGlu-Aβ(3-11)
B2 | human QC and human isoQC (YSShisoQCI55NC351A C-His) catalyze the conversion of Aβ(3-11) into pGlu-Aβ(3-11); the conversion of N-terminal glutamic acid by hisoQC is much slower compared with hQC
